Assay results as given in publication doi:10.1101/2020.10.05.326595 (bioRxiv, 2020).

Tests used:
crystal structure = target: the molecule itself; experiment: crystal structure
SEC-SAXS = target: the molecule itself; experiment: SEC-SAXS

| Protein | binding result (crystal structure) | stoichiometry N (SEC-SAXS) |
| --- | --- | --- |
| ZTL G46A:G80R (LOV domain construct, residues 29-165) (domain or fragment, UniProt Q94BT6 29-165, looked up) GGPIPYPVGNLLHTAPCAFVVTDAVEPDQPIIYVNTVFEMVTGYRAEEVLGRNCRFLQCRGPFAKRRHPLVDSMVVSEIRKCIDEGIEFQGELLNFRKDGSPLMNRLRLTPIYGDDDTITHIIGIQFFIETDIDLGP | binds | – |
| ZTL G46S:G80R (LOV domain construct, residues 29-165) (domain or fragment, UniProt Q94BT6 29-165, looked up) GGPIPYPVGNLLHTAPCSFVVTDAVEPDQPIIYVNTVFEMVTGYRAEEVLGRNCRFLQCRGPFAKRRHPLVDSMVVSEIRKCIDEGIEFQGELLNFRKDGSPLMNRLRLTPIYGDDDTITHIIGIQFFIETDIDLGP | – | 2 |
